In this experiment the target is nDARC(Y)-Fc: N-terminal 60 residues of human DARC (FyB) with tyrosine at position 41, fused to the Fc region of human IgG1 (human) (UniProt Q16570). Description: BLI; nDARC(Y)-Fc immobilised via its Fc on Anti-human IgG Fc Capture biosensors (20 ug/ml, 600 s); PvDBPII 1-120 nM; 25 C; PBS with 1 mg/ml BSA; reference biosensors with human IgG1 Fc subtracted; 1:2 binding model and steady-state analysis; mean of two experiments.

The results in this text go back to publication PMC10457348.

In general, Kd refers to the constant that tells how readily two partners part at equilibrium.

For “Recombinant Plasmodium vivax Duffy Binding Protein region II, variant PvW1 (PvDBPII PvW1) (from UniProt P22290 211-525) (domain or fragment)”, the Kd stood at 12 nM. That is a double-digit nanomolar value.

Substance “Recombinant Plasmodium vivax Duffy Binding Protein region II, variant Salvador I (PvDBPII SalI) (from UniProt P22290 211-525) (domain or fragment)” had a Kd of 8.8 nM.
